Measurements: US20250361322A1 (ICONIC THERAPEUTICS, published 2025)
One block for each binder: values may come before it.

How the values were obtained:
Experiment in all cases: cell-based or functional assay
[1] = target: Relipidated TF (UniProt P13726 33-295, limits assumed)
[2] = target: Relipidated TF
[3] = target: human Tissue Factor (hTF) (human, UniProt P13726 33-295)
[4] = target: human Tissue Factor (TF) (human, UniProt P13726 33-295)

B1: 25A5 (antibody, human IgG1, V domains shown)
VH: QVQLVQSGAEVKKPGASVKVSCKASGYTFDVYGISWVRQAPGQGLEWMGWIAPYSGNTNYAQKLQGRVTMTTDTSTSTAYMELRSLRSDDTAVYYCARDAGTYSPFGYGMDVWGQGTTVTVSS
VL: DIQMTQSPSTLSASVGDRVTITCRASESISNWLAWYQQKPGKAPKLLIYKAYSLEYGVPSRFSGSGSGTEFTLTISSLQPDDFATYYCQQFQKLPPFTFGGGTKVEIK
% ETP at 10 nM Ab (TGA without antibody pre-incubation) [1]: 99% | % Peak IIa at 10 nM Ab (TGA without antibody pre-incubation) [1]: 98% | % Peak IIa at 50 nM Ab (TGA without antibody pre-incubation) [1]: 98% | % Peak IIa at 100 nM Ab (TGA without antibody pre-incubation) [1]: 98% | ETP at 10 nM Ab (TGA without antibody pre-incubation) [1]: 2270 nM·min | ETP at 50 nM Ab (TGA without antibody pre-incubation) [1]: 2320 nM·min | ETP at 100 nM Ab (TGA without antibody pre-incubation) [1]: 2390 nM·min | Lag Time at 10 nM Ab (TGA without antibody pre-incubation) [1]: 4.7 min | Lag Time at 50 nM Ab (TGA without antibody pre-incubation) [1]: 4.8 min | Lag Time at 100 nM Ab (TGA without antibody pre-incubation) [1]: 5.1 min | Peak IIa at 10 nM Ab (TGA without antibody pre-incubation) [1]: 343 nM | Peak IIa at 50 nM Ab (TGA without antibody pre-incubation) [1]: 344 nM | Peak IIa at 100 nM Ab (TGA without antibody pre-incubation) [1]: 342 nM | ttPeak at 10 nM Ab (TGA without antibody pre-incubation) [1]: 8 min | ttPeak at 50 nM Ab (TGA without antibody pre-incubation) [1]: 8.1 min | ttPeak at 100 nM Ab (TGA without antibody pre-incubation) [1]: 8.5 min

B3: 5G9 (humanized TF8-5G9, CNTO 860) (antibody, V domains shown)
VH: QVQLVESGGGVVQPGRSLRLSCKASGFNIKDYYMHWVRQAPGKGLEWIGLIDPENGNTIYDPKFQGRFTISADNSKNTLFLQMDSLRPEDTAVYYCARDNSYYFDYWGQGTPVTVSS
VL: DIQMTQSPSSLSASVGDRVTITCKASQDIRKYLNWYQQKPGKAPKLLIYYATSLADGVPSRFSGSGSGTDYTFTISSLQPEDIATYYCLQHGESPYTFGQGTKLEIT
% FXa at 12.5 nM antibody [4]: 37% | % FXa at 25 nM antibody [4]: 33% | % FXa at 50 nM antibody [4]: 30% | % FXa at 100 nM antibody [4]: 30%

B6: anti-TF antibody 1F (antibody, human IgG1, V domains shown)
VH: EVQLLESGGGLVQPGGSLRLSCAASGFTFSDYAMGWVRQAPGKGLEWVSTISGSGGLTYYADSVKGRFTISRDNSKNTLYLQMNSLRAEDTAVYYCAKAPYGYYMDVWGKGTTVTVSS
VL: not shown
% ETP, TGA with 10 min antibody pre-incubation, 10 nM antibody [2]: 41% | % Peak IIa, TGA with 10 min antibody pre-incubation, 10 nM antibody [2]: 16% | % Peak IIa, TGA with 10 min antibody pre-incubation, 50 nM antibody [2]: 8% | % Peak IIa, TGA with 10 min antibody pre-incubation, 100 nM antibody [2]: 7% | % ttPeak, TGA with 10 min antibody pre-incubation, 10 nM antibody [2]: 220% | % ttPeak, TGA with 10 min antibody pre-incubation, 50 nM antibody [2]: 433% | % ttPeak, TGA with 10 min antibody pre-incubation, 100 nM antibody [2]: 483% | ETP, TGA with 10 min antibody pre-incubation, 10 nM antibody [2]: 742 nM·min | Lag Time, TGA with 10 min antibody pre-incubation, 10 nM antibody [2]: 13.8 min | Lag Time, TGA with 10 min antibody pre-incubation, 50 nM antibody [2]: 26.5 min | Lag Time, TGA with 10 min antibody pre-incubation, 100 nM antibody [2]: 29.5 min | Peak IIa, TGA with 10 min antibody pre-incubation, 10 nM antibody [2]: 44 nM | Peak IIa, TGA with 10 min antibody pre-incubation, 50 nM antibody [2]: 23 nM | Peak IIa, TGA with 10 min antibody pre-incubation, 100 nM antibody [2]: 20 nM | ttPeak, TGA with 10 min antibody pre-incubation, 10 nM antibody [2]: 22.4 min | ttPeak, TGA with 10 min antibody pre-incubation, 50 nM antibody [2]: 37.3 min | ttPeak, TGA with 10 min antibody pre-incubation, 100 nM antibody [2]: 40.8 min | IC50, cell viability of A431 cells, Secondary ADC (antibody with anti-human Fc Fab:MMAF), Continuous (FIG. 18B) [3]: 0.07 nM

Continued, in another order:

% ETP, TGA with 10 min antibody pre-incubation, 10 nM antibody [2]: 0% | % Peak IIa, TGA with 10 min antibody pre-incubation, 10 nM antibody [2]: 13% | % Peak IIa, TGA with 10 min antibody pre-incubation, 50 nM antibody [2]: 8% | % Peak IIa, TGA with 10 min antibody pre-incubation, 100 nM antibody [2]: 7% | % ttPeak, TGA with 10 min antibody pre-incubation, 10 nM antibody [2]: 319% | % ttPeak, TGA with 10 min antibody pre-incubation, 50 nM antibody [2]: 491% | % ttPeak, TGA with 10 min antibody pre-incubation, 100 nM antibody [2]: 537% | Lag Time, TGA with 10 min antibody pre-incubation, 10 nM antibody [2]: 19.6 min | Lag Time, TGA with 10 min antibody pre-incubation, 50 nM antibody [2]: 30.7 min | Lag Time, TGA with 10 min antibody pre-incubation, 100 nM antibody [2]: 33.6 min | Peak IIa, TGA with 10 min antibody pre-incubation, 10 nM antibody [2]: 36 nM | Peak IIa, TGA with 10 min antibody pre-incubation, 50 nM antibody [2]: 22 nM | Peak IIa, TGA with 10 min antibody pre-incubation, 100 nM antibody [2]: 19 nM | ttPeak, TGA with 10 min antibody pre-incubation, 10 nM antibody [2]: 29.3 min | ttPeak, TGA with 10 min antibody pre-incubation, 50 nM antibody [2]: 41.4 min | ttPeak, TGA with 10 min antibody pre-incubation, 100 nM antibody [2]: 44.6 min
B2: anti-TF antibody 39A (antibody, human IgG1, V domains shown)
VH: QVQLVQSGAEVKKPGSSVKVSCKASGGTFSSNAIGWVRQAPGQGLEWMGSIIPIIGFANYAQKFQGRVTITADESTSTAYMELSSLRSEDTAVYYCARDSGYYYGASSFGMDVWGQGTTVTVSS
VL: EIVMTQSPATLSVSPGERATLSCRASQSVSSNLAWYQQKPGQAPRLLIYGASTRATGIPARFSGSGSGTEFTLTISSLQSEDFAVYYCEQYNNLPLTFGGGTKVEIK
IC50, cell viability of A431 cells, Secondary ADC (antibody with anti-human Fc Fab:MMAF), Continuous (FIG. 18B) [3]: 0.08 nM

% ETP, TGA with 10 min antibody pre-incubation, 10 nM antibody [2]: 83% | % Peak IIa, TGA with 10 min antibody pre-incubation, 10 nM antibody [2]: 43% | % Peak IIa, TGA with 10 min antibody pre-incubation, 50 nM antibody [2]: 16% | % Peak IIa, TGA with 10 min antibody pre-incubation, 100 nM antibody [2]: 13% | % ttPeak, TGA with 10 min antibody pre-incubation, 10 nM antibody [2]: 96% | % ttPeak, TGA with 10 min antibody pre-incubation, 50 nM antibody [2]: 303% | ETP, TGA with 10 min antibody pre-incubation, 10 nM antibody [2]: 1520 nM·min | Lag Time, TGA with 10 min antibody pre-incubation, 10 nM antibody [2]: 6.5 min | Lag Time, TGA with 10 min antibody pre-incubation, 50 nM antibody [2]: 18.3 min | Lag Time, TGA with 10 min antibody pre-incubation, 100 nM antibody [2]: 22.3 min | Peak IIa, TGA with 10 min antibody pre-incubation, 10 nM antibody [2]: 121 nM | Peak IIa, TGA with 10 min antibody pre-incubation, 50 nM antibody [2]: 44 nM | Peak IIa, TGA with 10 min antibody pre-incubation, 100 nM antibody [2]: 37 nM | ttPeak, TGA with 10 min antibody pre-incubation, 10 nM antibody [2]: 13.7 min | ttPeak, TGA with 10 min antibody pre-incubation, 50 nM antibody [2]: 28.2 min | ttPeak, TGA with 10 min antibody pre-incubation, 100 nM antibody [2]: 33 min
B4: anti-TF antibody 54E (antibody, human IgG1, V domains shown)
VH: QVQLVQSGAEVKKPGASVKVSCKASGYTFANYYMHWVRQAPGQGLEWMGIINPSGGITVYAQKFQGRVTMTRDTSTSTVYMELSSLRSEDTAVYYCARGGSKVAALAFDIWGQGTMVTVSS
VL: DIQMTQSPSSLSASVGDRVTITCQASQDISNSLNWYQQKPGKAPKLLIYDASNLETGVPSRFSGSRSGTDFTFTISSLQPEDIATYYCQQYNFHPLTFGGGTKVEIK
IC50, cell viability of A431 cells, Secondary ADC (antibody with anti-human Fc Fab:MMAF), Continuous (FIG. 18B) [3]: 0.11 nM

% ETP, TGA with 10 min antibody pre-incubation, 10 nM antibody [2]: 77% | % ETP, TGA with 10 min antibody pre-incubation, 50 nM antibody [2]: 72% | % ETP, TGA with 10 min antibody pre-incubation, 100 nM antibody [2]: 66% | % Peak IIa, TGA with 10 min antibody pre-incubation, 10 nM antibody [2]: 36% | % Peak IIa, TGA with 10 min antibody pre-incubation, 50 nM antibody [2]: 30% | % Peak IIa, TGA with 10 min antibody pre-incubation, 100 nM antibody [2]: 28% | % ttPeak, TGA with 10 min antibody pre-incubation, 10 nM antibody [2]: 159% | % ttPeak, TGA with 10 min antibody pre-incubation, 50 nM antibody [2]: 237% | % ttPeak, TGA with 10 min antibody pre-incubation, 100 nM antibody [2]: 247% | ETP, TGA with 10 min antibody pre-incubation, 10 nM antibody [2]: 1410 nM·min | ETP, TGA with 10 min antibody pre-incubation, 50 nM antibody [2]: 1300 nM·min | ETP, TGA with 10 min antibody pre-incubation, 100 nM antibody [2]: 1200 nM·min | Lag Time, TGA with 10 min antibody pre-incubation, 10 nM antibody [2]: 9.4 min | Lag Time, TGA with 10 min antibody pre-incubation, 50 nM antibody [2]: 14.1 min | Lag Time, TGA with 10 min antibody pre-incubation, 100 nM antibody [2]: 14.7 min | Peak IIa, TGA with 10 min antibody pre-incubation, 10 nM antibody [2]: 98 nM | Peak IIa, TGA with 10 min antibody pre-incubation, 50 nM antibody [2]: 83 nM | Peak IIa, TGA with 10 min antibody pre-incubation, 100 nM antibody [2]: 76 nM | ttPeak, TGA with 10 min antibody pre-incubation, 10 nM antibody [2]: 18.1 min | ttPeak, TGA with 10 min antibody pre-incubation, 50 nM antibody [2]: 23.6 min | ttPeak, TGA with 10 min antibody pre-incubation, 100 nM antibody [2]: 24.3 min
B5: anti-TF antibody 29E (antibody, human IgG1, V domains shown)
VH: QVQLVESGGGVVQPGRSLRLSCAASGFTFRSYGMHWVRQAPGKGLEWVAVITYDGINKYYADSVEGRFTISRDNSKNTLYLQMNSLRAEDTAVYYCARDGVYYGVYDYWGQGTLVTVSS
VL: not shown
IC50, cell viability of A431 cells, Secondary ADC (antibody with anti-human Fc Fab:MMAF), Continuous (FIG. 18B) [3]: 0.1 nM
